In article PMC11543927, “Subtleties in Clathrin heavy chain binding boxes provide selectivity among adaptor proteins of budding yeast” (Nature Communications, 2024):
Numbering of substitutions follows the chain as printed.

Columns and labels:
Assay in all cases: nanoDSF thermal shift; ScChc-NTD mutants 10 µM with Ent1 or Ent2 peptide, thermal ramp up to 80 °C; apparent KD from the Tm shift model
Settings in all cases: both partners purified
[1] = molecular target: T1, ScChc-NTD Clathrin and Arrestin box mutant (Cla+Arr) (Saccharomyces cerevisiae, UniProt P22137 1-369, K63E | I87D | Q89A | K98E | Q195A | I197T | K251E)
T1 construct: Clathrin heavy chain N-terminal domain, Saccharomyces cerevisiae, residues 1-369, Clathrin and Arrestin box mutant
T1 sequence (looked up): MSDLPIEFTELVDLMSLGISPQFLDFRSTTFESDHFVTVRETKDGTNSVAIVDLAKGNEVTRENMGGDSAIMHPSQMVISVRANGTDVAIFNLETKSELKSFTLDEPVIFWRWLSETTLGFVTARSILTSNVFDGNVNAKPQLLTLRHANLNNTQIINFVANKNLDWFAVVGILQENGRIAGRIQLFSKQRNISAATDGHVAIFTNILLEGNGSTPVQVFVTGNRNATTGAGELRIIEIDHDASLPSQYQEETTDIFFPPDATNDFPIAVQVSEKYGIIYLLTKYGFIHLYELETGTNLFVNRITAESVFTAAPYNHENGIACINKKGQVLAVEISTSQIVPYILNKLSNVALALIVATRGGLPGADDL

[2] = molecular target: T2, ScChc-NTD Arrestin and W box mutant (Arr+W) (Saccharomyces cerevisiae, UniProt P22137 1-369, F26A | Q155A | Q195A | I197T | K251E)
T2 construct: Clathrin heavy chain N-terminal domain, Saccharomyces cerevisiae, residues 1-369, Arrestin and W box mutant
T2 sequence (looked up): T1 sequence (looked up) with F26A, E63K, D87I, A89Q, E98K, Q155A

[3] = molecular target: T3, ScChc-NTD Clathrin, Arrestin and W box mutant (Cla+Arr+W) (Saccharomyces cerevisiae, UniProt P22137 1-369, F26A | K63E | I87D | Q89A | K98E | Q155A | Q195A | I197T | K251E)
T3 construct: Clathrin heavy chain N-terminal domain, Saccharomyces cerevisiae, residues 1-369, Clathrin, Arrestin and W box mutant; also called triple mutant
T3 sequence (looked up): T1 sequence (looked up) with F26A, Q155A

[4] = molecular target: T4, ScChc-NTD Clathrin box mutant (K63E, I87D, Q89A, K98E) (Saccharomyces cerevisiae, UniProt P22137 1-369, K63E | I87D | Q89A | K98E)
T4 construct: Clathrin heavy chain N-terminal domain, Saccharomyces cerevisiae, residues 1-369, Clathrin box mutant; also called Cla mutant
T4 sequence (looked up): T1 sequence (looked up) with A195Q, T197I, E251K

[5] = molecular target: T5, ScChc-NTD Arrestin box mutant (Q195A, I197T, K251E) (Saccharomyces cerevisiae, UniProt P22137 1-369, Q195A | I197T | K251E)
T5 construct: Clathrin heavy chain N-terminal domain, Saccharomyces cerevisiae, residues 1-369, Arrestin box mutant; also called Arr mutant
T5 sequence (looked up): T1 sequence (looked up) with E63K, D87I, A89Q, E98K

B1: Ent2 CBM peptide (GVSLIDL) (peptide)
peptide: GVSLIDL
notes: also called Ent2 peptide; source: synthetic peptide, bought: NovoProLabs
- fold decrease in affinity against WT NTD [1]: ~5 fold
- binding result [2]: binds
- Kd [3]: ~1040 µM
- Kd [4]: ~509 µM
- Kd [5]: ~216 µM

B2: Ent1 CBM peptide (GYTLIDL) (peptide)
peptide: GYTLIDL
notes: also called Ent1 peptide; source: synthetic peptide, bought: NovoProLabs
- Kd [1]: ~2050 µM
- binding result [2]: binds
- Kd [3]: ~3450 µM
- Kd [4]: ~968 µM
- Kd [5]: ~166 µM
